# B1: glucose oxidase (GOx), Aspergillus niger type VIII (Aspergillus niger) (protein)
# chain: LPHYIRSNGIEASLLTDPKDVSGRTVDYIIAGGGLTGLTTAARLTENPNISVLVIESGSYESDRGPIIEDLNAYGDIFGSSVDHAYETVELATNNQTALIRSGNGLGGSTLVNGGTWTRPHKAQVDSWETVFGNEGWNWDNVAAYSLQAERARAPNAKQIAAGHYFNASCHGVNGTVHAGPRDTGDDYSPIVKALMSAVEDRGVPTKKDFGCGDPHGVSMFPNTLHEDQVRSDAAREWLLPNYQRPNLQVLTGQYVGKVLLSQNGTTPRAVGVEFGTHKGNTHNVYAKHEVLLAAGSAVSPTILEYSGIGMKSILEPLGIDTVVDLPVGLNLQDQTTATVRSRITSAGAGQGQAAWFATFNETFGDYSEKAHELLNTKLEQWAEEAVARGGFHNTTALLIQYENYRDWIVNHNVAYSELFLDTAGVASFDVWDLLPFTRGYVHILDKDPYLHHFAYDPQYFLNELDLLGQAAATQLARNISNSGAMQTYFAGETIPGDNLAYDADLSAWTEYIPYHFRPNYHGVGTCSMMPKEMGGVVDNAARVYGVQGLRVIDGSIPPTQMSSHVMTVFYAMALKISDAILEDYASMQ
# notes: commercial native enzyme, Merck/Sigma Aldrich, type VIII; free in solution, together with HRP
# Substrate: OC[C@H]1OC(O)[C@H](O)[C@@H](O)[C@@H]1O
# Test: purified protein
# Type: biochemical, Aspergillus niger
# Conditions: apparent Km of the whole cascade with free HRP, glucose 50-175 µM (all below Km), TMB 2 mM, 0.2 M acetate buffer (pH 4 in the standard assay), 20-23 °C, free enzymes
protein,measurement,value
B1,Km,1.198 mM

# Reference: paper PMC9864776, “Synthesis of Novel Polymer-Assisted Organic-Inorganic Hybrid Nanoflowers and Their Application in Cascade Biocatalysis” (Molecules, 2023)
